Test results reported in FireProtDB (doi:10.1016/j.bbapap.2007.05.016).
Where “and” joins values, the source holds several entries; their conditions need not be identical. Equal values may be shown once.

B1: Chitosanase, P33665 (parent)
chain: MHSQHRTARIALAVVLTAIPASLATAGVGYASTQASTAVKAGAGLDDPHKKEIAMELVSSAENSSLDWKAQYKYIEDIGDGRGYTGGIIGFCSGTGDMLELVQHYTDLEPGNILAKYLPALKKVNGSASHSGLGTPFTKDWATAAKDTVFQQAQNDERDRVYFDPAVSQAKADGLRALGQFAYYDAIVMHGPGNDPTSFGGIRKTAMKKARTPAQGGDETTYLNAFLDARKAAMLTEAAHDDTSRVDTEQRVFLKAGNLDLNPPLKWKTYGDPYVINS

Variants of: B1
Details: Streptomyces sp. (strain N174), pH 4.5, Thermal, Fluorescence, reversible: No, structure 1CHK, whole UniProt chain shown

Variant | Tm (Sodium acetate 50 mM) [°C] | change of melting temperature, mutant - wild type (higher = more stable) (Sodium acetate 50 mM) [°C] | change of melting temperature, mutant - wild type (higher = more stable) (Sodium acetate 100 mM)
A144L | 48 | -5.5 | -5.3 °C and -6.2 °C and -7 °C
K204R |  |  | -1 °C and -0.2 °C and -0.9 °C
